These results are taken from patent publication US12559560B2, “Antibody-based compositions for targeting tropomyosin receptor kinase B (TrkB) isoforms” (Fred Hutchinson Cancer Center, priority 2020, dated 2026).

What all share (format): binding
Experiment [1] concerns the target T1, TrkB.T1 (Homo sapiens, UniProt Q16620).
T1 construct: To determine endogenous localization of TrkB.T1 in human brain, a monoclonal antibody; from tissue; host or cells: normal human brain (rapid autopsy, FFPE sections)
The experiment can be described thus: TrkB.T1 immunohistochemistry on human brain. The method, then:
(§1) Antibody validation phase—large batch IHC. Four-μm sections of a multi-tissue block containing human brain, mouse brain, TrkB.T1^−/− mouse brain, a cell pellet over-expressing TrkB.T1 and a cell pellet without TrkB.T1 were cut and stained with the Leica Bond Rx (Leica Biosystems, Buffalo Grove, IL). Slides were pretreated with H2 antigen retrieval buffer for 20 min. Endogenous peroxidase was blocked with 3% hydrogen peroxide for 5 min. A TCT protein block was applied for 10 min (0.05 M Tris, 0.15 M NaCl, 0.25% Casein, 0.1% Tween 20, pH 7.6). Supernatants from multiple boosting and pre-/post-fusion samples, along with antibody clone D12 were used at 1:20 and applied to the tissue for 30 min. The antibody was then detected using Leica Power Vision HRP Mouse specific polymer (Leica Biosystems catalog #PV6114) for 12 min and staining was visualized with Refine DAB (Leica Biosystems catalog #D59800) and a hematoxylin counterstain was used (Hematoxylin 50% in H2O from Biocare catalog #NM-HEM-M). Mouse isotype control slides were included for each run (Jackson ImmunoResearch Laboratories) at 2 μg/ml. Digital images of IHC-stained slides were obtained at ×40 magnification (0.25 μm/pixel) using a whole slide scanner (ScanScope AT Turbo, Aperio) fitted with a 20×/0.75 Plan Apo objective lens and ×2 magnification changer (Olympus, Center Valley, Pa., USA). […]

In experiment [2] the target is T2, full length TrkB.T1 protein (Mus musculus, UniProt P15209).
T2 construct: mouse brain lysates from TrkB.T1^+/+ and TrkB.T1^−/− mice were prepared by mechanical disruption; from tissue; host or cells: mouse brain (TrkB.T1+/+ wild type; TrkB.T1-/- as negative control)
T2 sequence (P15209 32-476 isoform P15209-2 limits assumed): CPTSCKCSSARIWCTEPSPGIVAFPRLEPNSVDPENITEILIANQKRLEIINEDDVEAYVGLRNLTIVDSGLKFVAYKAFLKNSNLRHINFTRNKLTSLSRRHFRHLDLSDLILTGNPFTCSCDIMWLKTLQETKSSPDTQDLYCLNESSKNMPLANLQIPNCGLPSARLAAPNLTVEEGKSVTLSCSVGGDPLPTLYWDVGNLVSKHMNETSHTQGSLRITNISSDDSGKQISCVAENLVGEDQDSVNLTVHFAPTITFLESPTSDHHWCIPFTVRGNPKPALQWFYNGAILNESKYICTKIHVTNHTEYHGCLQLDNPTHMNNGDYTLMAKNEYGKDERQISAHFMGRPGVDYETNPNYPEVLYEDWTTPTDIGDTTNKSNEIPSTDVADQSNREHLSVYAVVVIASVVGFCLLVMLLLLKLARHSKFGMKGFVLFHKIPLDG
In words: Wes capillary Western blot of mouse brain detergent extracts (antibody screening Stage 2). The conditions noted are these: normal and KO mouse brain detergent extracts; monoclonal culture super diluted 1:2. The method, then: Wes™ capillary electrophoresis for antibody development. Protein Simple Wes™ was used at two stages of antibody screening: Stage 1, selecting immunized mice to advance for hybridoma generation, and Stage 2, for validation of monoclonal antibodies that Western blot full-length TrkB.T1 protein in murine brain detergent extracts. Briefly, mouse brain lysates from TrkB.T1^+/+ and TrkB.T1^−/− mice were prepared by mechanical disruption (Dounce tissue homogenizer, Kimble Chase) in RIPA lysis buffer (Pierce™ RIPA Lysis and Extraction Buffer, ThermoScientific™) containing HALT™ Protease and Phosphatase Inhibitor Cocktail and EDTA (ThermoScientific™) and normalized to 2 μg/μl total protein via Bradford Protein Assay. Approximately 8-10 ng total brain extract protein was loaded into the Protein Simple Capillary WES system for Western analysis following Protein Simple recommended methods (Rustandi, R. R., et al. Applications of an automated and quantitative CE-based size and charge western blot for therapeutic proteins and vaccines. Methods Mol. Biol. 1466, 197-217 (2016)). Mice with antisera (1:2500 dilution in PBS and Antibody Diluent (Protein Simple)) that identified a positive band at 90-100 kDa for the TrkB.T1 protein were advanced forward for final boosting, splenectomy, and hybridoma generation (FIG. 3B). […]

The target in experiment [3] is T3, TrkB.T1 (Mus musculus, UniProt P15209).
T3 construct: from tissue; host or cells: formalin-fixed paraffin-embedded mouse brain and RCAS/tv-a mouse gliomas
T3 sequence (P15209 32-476 isoform P15209-2 limits assumed): as above
The experiment can be described thus: TrkB.T1 immunohistochemistry on mouse brain / mouse tumors. The method, then:
as §1

T1 sequence (Q16620 32-477 isoform Q16620-2 limits assumed): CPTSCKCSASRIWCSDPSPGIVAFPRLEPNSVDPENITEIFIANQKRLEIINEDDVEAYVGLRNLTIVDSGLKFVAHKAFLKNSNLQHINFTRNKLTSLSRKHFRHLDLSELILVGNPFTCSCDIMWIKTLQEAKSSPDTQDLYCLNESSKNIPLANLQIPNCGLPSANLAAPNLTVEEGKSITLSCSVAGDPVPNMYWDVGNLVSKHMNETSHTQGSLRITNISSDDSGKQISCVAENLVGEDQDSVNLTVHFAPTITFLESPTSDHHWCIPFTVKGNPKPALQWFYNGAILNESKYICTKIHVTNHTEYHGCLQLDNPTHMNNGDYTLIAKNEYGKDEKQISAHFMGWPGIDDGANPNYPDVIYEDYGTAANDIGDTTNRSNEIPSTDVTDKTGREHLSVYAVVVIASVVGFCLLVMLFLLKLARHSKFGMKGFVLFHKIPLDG

B1: Clone FH1D12: Murine monoclonal antibody to the TrkB.T1 C-terminal peptide … (SEQ ID NO:1), raised in TrkB.T1 null mice (antibody, V domains shown)
VL: QTVVTQESALTTSPGETVTLTCRSSTGAVTTSNYANWVQEKPDHLFTGLIGGINNRAPGVPARFSGSLIGDKAVLTITGAQTEDEAIYFCALWYSNHWVFGGGTKLTVL
VH: VQLQQSGPELARPWASVKISCQAFYTFSRGIHFDIRNTMYWIQWVKQRPGQGLEWIGAIYPGNGDPTYSQNFKDKATLTADKSSNTAYMQLSSLTSEDSAVYYCARYDYGGGFTYWGQGTLVTVSAGS
Turning to B1, the “immunostaining in human brain” value with TrkB.T1 [1] is reported as “positive”. For the same molecule, the “Western blotting activity (full length TrkB.T1 protein)” value in experiment [2] is reported as “positive”. For the same molecule, in the experiment with TrkB.T1 [3] (TrkB.T1-/- knockout mouse brain (specificity control)), the “staining in TrkB.T1-/- knockout mouse brain” value is reported as “absent”. Also, the “immunostaining in wild-type (WT) mouse brain” value with TrkB.T1 [3] (wild-type mouse brain) is on record as “positive”.
